In publication PMC8790125:

Target: Rae1–Nup98_(GLEBS) complex, P78406
Experiment: ITC

B1: SARS-CoV-1 Orf6CTT (22-mer peptide, residues 42–63 of SARS-CoV-1 Orf6) (peptide)
chain: KPLTKKNYSELDDEEPMELDYP
modifications: not checked
  Kd: 278 nM
  stoichiometry N: 1
